Data on one molecule can be found in patent US20250339564A1 (ACADEMISCH ZIEKENHUIS LEIDEN H O D N LUMC, published 2025).

In this test the target is T1, Epithelial Cell Adhesion Molecule (EpCAM) (human, UniProt P16422 24-314).
T1 construct: whole, on cells; Target is endogenous EpCAM in patient tumor tissue: in vivo targeting for m1, FFPE sections for the IHC antibodies
T1 sequence (looked up): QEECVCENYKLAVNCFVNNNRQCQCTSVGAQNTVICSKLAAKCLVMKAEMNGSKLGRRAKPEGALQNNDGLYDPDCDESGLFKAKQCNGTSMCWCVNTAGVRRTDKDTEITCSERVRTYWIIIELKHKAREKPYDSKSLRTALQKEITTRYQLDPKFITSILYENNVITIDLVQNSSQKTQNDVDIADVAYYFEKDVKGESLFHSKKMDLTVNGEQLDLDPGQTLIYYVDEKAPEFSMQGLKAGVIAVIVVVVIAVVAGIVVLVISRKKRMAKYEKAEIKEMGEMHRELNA
Nature of the test: NIR fluorescence microscopy (Axio scan) of metastatic lymph node sections after IV dosing, overlaid with EpCAM IHC.

B1: VB5-845D-800CW (Fab, V domains shown)
VH: EVQLQQSGPGLVQPGGSVRISCAASGYTFTAYGMNWVRQAPGKGLEWMGWINTYTGESTYADSFKGRFEFSLDTHNSSAYLQIQSLREEDTAVYYCARFAIQGDYWGQGTLVTVSS
VL: DIQMTQSPSSLSASVGDRVTITCKSTKSLLHSNGITYLYWYQQKPGSAPKLLIYQMSHLASGVPSRFSSSGSGTDFTLTISSLQPEDFATYYCAQNLEIPRTFGQGTKVEIKR
modifications: IRDye 800CW conjugated by N-hydroxysuccinimide ester chemistry to primary amines (sites and chain not stated)
As to B1, the binding result is “binds”.
